{
  "source": "the supplement of paper PMC12764529",
  "key": {"[1]": {"test": "folding stability dG unfold from trypsin proteolysis; higher = more stable", "procedure,_shortened": "(§1)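 How resistant each design was to proteolysis was captured as K50, inferred by Bayesian fitting of sequencing counts. Unfolding free energy was then derived relative to a sequence-predicted unfolded-state K50 and a shared folded-state K50, per protease or combined. Digestion used trypsin and chymotrypsin at 11 threefold-diluted concentrations plus a no-protease condition, on mini-proteins under 80 residues without cysteine in a PA-tagged cDNA display construct. Designs were kept only when AlphaFold2 dimer inter-PAE was above 15.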"}, "[2]": {"test": "folding stability dG unfold from chymotrypsin proteolysis; higher = more stable", "procedure,_shortened": "as §1"}, "[3]": {"test": "folding stability dG unfold (combined trypsin and chymotrypsin); higher = more stable", "procedure,_shortened": "as §1"}},
  "note": "± gives the half width of the 95% confidence interval.",
  "data": [
    {"sequence": "SAGGMEKAIKEIKEAAKKGEEAVIVLPKNVDPSELISAIEKETGAKVEPLEVKPLPNGELVIKIKVKSAGGS [r16_318_TrMRF]", "values": [
      {"measurement": "folding stability dG unfold", "setting": "[1]", "value": "1.44 ± 0.1", "unit": "kcal/mol"},
      {"measurement": "folding stability dG unfold", "setting": "[2]", "value": "2.23 ± 0.16", "unit": "kcal/mol"},
      {"measurement": "folding stability dG unfold", "setting": "[3]", "value": "1.89 ± 0.12", "unit": "kcal/mol"}
    ]},
    {"sequence": "SAGGMELVGEYEVELPDVPIRFPVYRVPEAGLVVVEAERYDPSTGEWTPLGVVPLPEGSAEEALKALSAGGS [r8_423_TrMRF]", "values": [
      {"measurement": "folding stability dG unfold", "setting": "[1]", "value": "1.21 ± 0.034", "unit": "kcal/mol"},
      {"measurement": "folding stability dG unfold", "setting": "[2]", "value": "0.334 ± 0.089", "unit": "kcal/mol"},
      {"measurement": "folding stability dG unfold", "setting": "[3]", "value": "0.864 ± 0.061", "unit": "kcal/mol"}
    ]},
    {"sequence": "SAGGMELVIAVNSKEEAKKAAEEIKKKTPKGFKLEIEIEEYDLKENVEPEDKDIENIKVYLIKVKLESAGGS [r16_795_TrMRF]", "values": [
      {"measurement": "folding stability dG unfold", "setting": "[1]", "value": "1.4 ± 0.13", "unit": "kcal/mol"},
      {"measurement": "folding stability dG unfold", "setting": "[2]", "value": "2.01 ± 0.21", "unit": "kcal/mol"},
      {"measurement": "folding stability dG unfold", "setting": "[3]", "value": "1.69 ± 0.23", "unit": "kcal/mol"}
    ]},
    {"sequence": "SAGGMELVSRKRLSTSADGSVTYLYEYYDPKTGKRYTLVVTVKTPDGKIKPKVFTADSEEEAKKIALESAGG [r13_26_JUSTAS]", "values": [
      {"measurement": "folding stability dG unfold", "setting": "[1]", "value": "1.1 ± 0.06", "unit": "kcal/mol"},
      {"measurement": "folding stability dG unfold", "setting": "[2]", "value": "1.56 ± 0.16", "unit": "kcal/mol"},
      {"measurement": "folding stability dG unfold", "setting": "[3]", "value": "1.34 ± 0.11", "unit": "kcal/mol"}
    ]},
    {"sequence": "SAGGMEPIEIPAKVKITHNGKEQEYPLENVTIWPMPDGMYMIYNPDKGEMFFINPKNGRLMRIEIDDSAGGS [r16_721_TrROS]", "values": [
      {"measurement": "folding stability dG unfold", "setting": "[1]", "value": "0.94 ± 0.092", "unit": "kcal/mol"},
      {"measurement": "folding stability dG unfold", "setting": "[2]", "value": "2.5 ± 0.15", "unit": "kcal/mol"},
      {"measurement": "folding stability dG unfold", "setting": "[3]", "value": "1.99 ± 0.19", "unit": "kcal/mol"}
    ]},
    {"sequence": "SAGGMERKTLTVNVPASVPASELLSLLEGYGDVLLVLGNGEVLHIKRDDAPGLEGLPLSDDDVLELYYSAGG [r13_399_TrMRF]", "values": [
      {"measurement": "folding stability dG unfold", "setting": "[1]", "value": "-0.696 ± 0.14", "unit": "kcal/mol"},
      {"measurement": "folding stability dG unfold", "setting": "[2]", "value": "1.23 ± 0.059", "unit": "kcal/mol"},
      {"measurement": "folding stability dG unfold", "setting": "[3]", "value": "0.802 ± 0.075", "unit": "kcal/mol"}
    ]},
    {"sequence": "SAGGMEVKEISIPVPENLTPEQAVEKVKELFEKHPELEHVLVYFELPNGKPLVVEVDKNGKITKVEEKSAGG [r13_690_TrMRF]", "values": [
      {"measurement": "folding stability dG unfold", "setting": "[1]", "value": "0.889 ± 0.041", "unit": "kcal/mol"},
      {"measurement": "folding stability dG unfold", "setting": "[2]", "value": "2.28 ± 0.048", "unit": "kcal/mol"},
      {"measurement": "folding stability dG unfold", "setting": "[3]", "value": "1.88 ± 0.095", "unit": "kcal/mol"}
    ]},
    {"sequence": "SAGGMEVREIDVENEDGHNVKIEIWWMPGEGWIMVKIEGPNPALIDDIQKEIGLPILEVMKDGYLMIKSAGG [r13_937_TrROS]", "values": [
      {"measurement": "folding stability dG unfold", "setting": "[1]", "value": "1.16 ± 0.03", "unit": "kcal/mol"},
      {"measurement": "folding stability dG unfold", "setting": "[2]", "value": "2.6 ± 0.033", "unit": "kcal/mol"},
      {"measurement": "folding stability dG unfold", "setting": "[3]", "value": "2.22 ± 0.091", "unit": "kcal/mol"}
    ]},
    {"sequence": "SAGGMEVVEIKYDPETGTVTVTVAIPESLSFDEVAPEVEALVKEKTGRPVEITVDPATGTVTATVPRSAGGS [r8_314_JUSTAS]", "values": [
      {"measurement": "folding stability dG unfold", "setting": "[1]", "value": "0.832 ± 0.031", "unit": "kcal/mol"},
      {"measurement": "folding stability dG unfold", "setting": "[2]", "value": "1.39 ± 0.058", "unit": "kcal/mol"},
      {"measurement": "folding stability dG unfold", "setting": "[3]", "value": "1.15 ± 0.072", "unit": "kcal/mol"}
    ]},
    {"sequence": "SAGGMFKVYEVTGKDAKVTIVEAPLPDGGKLVVVEVWEGGKPVKPFLVPVAELEEIAKAIGIKPEELKSAGG [r13_108_TrMRF]", "values": [
      {"measurement": "folding stability dG unfold", "setting": "[1]", "value": "1.05 ± 0.027", "unit": "kcal/mol"},
      {"measurement": "folding stability dG unfold", "setting": "[2]", "value": "1.9 ± 0.082", "unit": "kcal/mol"},
      {"measurement": "folding stability dG unfold", "setting": "[3]", "value": "1.58 ± 0.14", "unit": "kcal/mol"}
    ]},
    {"sequence": "SAGGMGFEKVGTFKLEDDVIVEIYKGPEKKLVAKVYFPKTGKVIEDPGHPDESIEELIERIKAIAEEESAGG [r13_624_TrMRF]", "values": [
      {"measurement": "folding stability dG unfold", "setting": "[1]", "value": "4.48 ± 0.39", "unit": "kcal/mol"},
      {"measurement": "folding stability dG unfold", "setting": "[2]", "value": "4.32 ± 0.07", "unit": "kcal/mol"},
      {"measurement": "folding stability dG unfold", "setting": "[3]", "value": "4.2 ± 0.28", "unit": "kcal/mol"}
    ]},
    {"sequence": "SAGGMGISTEPEISFERKTLPDGTYVLEIHTTTTTTDSSGVVTTTTSTKTVKFSPDNPEKIKELIEALSAGG [r13_412_JUSTAS]", "values": [
      {"measurement": "folding stability dG unfold", "setting": "[1]", "value": "2.67 ± 0.098", "unit": "kcal/mol"},
      {"measurement": "folding stability dG unfold", "setting": "[2]", "value": "2.51 ± 0.058", "unit": "kcal/mol"},
      {"measurement": "folding stability dG unfold", "setting": "[3]", "value": "2.54 ± 0.14", "unit": "kcal/mol"}
    ]},
    {"sequence": "SAGGMGRARLYELEIEVDLHPDETIEGALRRLLGLREDEEILEVEAEVDPVNGKVRIRAVVLVRDPETSAGG [r13_828_TrMRF]", "values": [
      {"measurement": "folding stability dG unfold", "setting": "[1]", "value": "2.47 ± 0.087", "unit": "kcal/mol"},
      {"measurement": "folding stability dG unfold", "setting": "[2]", "value": "4.22 ± 0.032", "unit": "kcal/mol"},
      {"measurement": "folding stability dG unfold", "setting": "[3]", "value": "3.85 ± 0.081", "unit": "kcal/mol"}
    ]},
    {"sequence": "SAGGMIKIEVEKKDDKLIIRIEVDGKKYEIEIPKDMTLEEALKKALEELKEKFPGKKIKIKKVEIFKPSAGG [r13_884_TrROS_Hall]", "values": [
      {"measurement": "folding stability dG unfold", "setting": "[1]", "value": "3.22 ± 0.21", "unit": "kcal/mol"},
      {"measurement": "folding stability dG unfold", "setting": "[2]", "value": "2.21 ± 0.088", "unit": "kcal/mol"},
      {"measurement": "folding stability dG unfold", "setting": "[3]", "value": "2.36 ± 0.28", "unit": "kcal/mol"}
    ]},
    {"sequence": "SAGGMIKVEVEPLEDGVLRVRVYVPHPDGPPIEIEVVFPPEVGSLEEALEKAVEVVEEFLKKHNIPLSAGGS [r8_464_TrMRF]", "values": [
      {"measurement": "folding stability dG unfold", "setting": "[1]", "value": "2.25 ± 0.082", "unit": "kcal/mol"},
      {"measurement": "folding stability dG unfold", "setting": "[2]", "value": "2.22 ± 0.065", "unit": "kcal/mol"},
      {"measurement": "folding stability dG unfold", "setting": "[3]", "value": "2.36 ± 0.1", "unit": "kcal/mol"}
    ]},
    {"sequence": "SAGGMILEIEFPPELIEELLEKLKKEFPDVEVKPLKIEYDPETGLVKVPILVKTKNPEEVEKIKKLAASAGG [r13_539_TrMRF]", "values": [
      {"measurement": "folding stability dG unfold", "setting": "[1]", "value": "2.91 ± 0.15", "unit": "kcal/mol"},
      {"measurement": "folding stability dG unfold", "setting": "[2]", "value": "2.78 ± 0.091", "unit": "kcal/mol"},
      {"measurement": "folding stability dG unfold", "setting": "[3]", "value": "2.83 ± 0.11", "unit": "kcal/mol"}
    ]},
    {"sequence": "SAGGMILKITIPKEDEEKAKELADELAKKLEEETGKPIKVKVKVEKNENGELTIVIEVDGKKIEIKLSAGGS [r16_356_TrROS_Hall]", "values": [
      {"measurement": "folding stability dG unfold", "setting": "[1]", "value": "1.32 ± 0.091", "unit": "kcal/mol"},
      {"measurement": "folding stability dG unfold", "setting": "[2]", "value": "0.444 ± 0.078", "unit": "kcal/mol"},
      {"measurement": "folding stability dG unfold", "setting": "[3]", "value": "0.999 ± 0.27", "unit": "kcal/mol"}
    ]},
    {"sequence": "SAGGMIRITTEDGEELSEEELAELEEAIRKGDLDEAVKKIEELLRERFGKEIKIKVEVFFPPPPPPESAGGS [r8_48_TrROS_Hall]", "values": [
      {"measurement": "folding stability dG unfold", "setting": "[1]", "value": "3.79 ± 0.26", "unit": "kcal/mol"},
      {"measurement": "folding stability dG unfold", "setting": "[2]", "value": "3.26 ± 0.092", "unit": "kcal/mol"},
      {"measurement": "folding stability dG unfold", "setting": "[3]", "value": "3.59 ± 0.15", "unit": "kcal/mol"}
    ]}
  ]
}
